B1: TPR t1 (parent)
chain: GACCAAUCUGCCCUCAGAGCUCGAGAACAUCUUCGGAUGCAGAGGAGGCAGGCUUCGGUGGCGCGAUAGCGCCAACGUCCUCAACCUCCAAUGCAUCCCACCACAUGAUGAUGCCUGAAGAGCCUUGGUUUUUUG

Variants of: B1
Test: polymerase ribozyme fitness, log enrichment relative to wild type (log ratio); higher = more active; in vitro selection for triplet polymerase activity
Summary of the method: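 Genotype fitness is the logarithm of its enrichment divided by wild-type enrichment, using inverse-variance-weighted averages of replicates. That logarithm is base 2. Enrichment was measured by Illumina sequencing of input and output libraries from one triplicate in vitro selection round, with frozen incubation at −7 °C, on PCR-built, transcribed mutant libraries of each subunit of a heterodimeric triplet polymerase ribozyme, retaining genotypes with ≥10 input reads and ≥1 read per output.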

In order of rising “polymerase ribozyme fitness (log ratio)” value:
1. C80A C97A G107U C115U  -7.92
2. C82G C98G U109A C123G  -7.59
3. C79G U109A  -7.49
4. U81C C82G G113C C115G A118G  -7.41
5. C79A C99G G120U  -7.33
6. C80A C97G G117C  -7.22
7. C80G U106A G122A  -6.86
8. C80G G110C  -6.58
9. C80G G117C  -6.43
10. U78C C102A G117C  -6.34
11. U78G C85G C88A A111G C114A  -6.16
12. U81A A95U C102G A103U G110C U125G  -6.02
13. C79G A103G  -5.92
14. C79A C80G  -5.91
15. C80A A108G  -5.73
16. U81A U92A A118G  -5.64
17. C79A G110C  -5.36
18. C79A U92C G110C U125G  -5.23
19. C80U C98A U132C  -5.2
20. C79G C114G  -5.17
21. C80G U112A  -5.14
22. C80G A118U  -5.08
23. U81A A111U  -5.01
24. C79A G93A G110U  -4.93
25. U81G G113C  -4.85
26. U78C C97G C104A  -4.78
27. U78C C104A G113U  -4.71
28. C79A C115G A118U  -4.7
29. U78C C97U A103U C123G  -4.59
30. C79A C114G  -4.53
31. U78G G117C  -4.47
32. C79A C102U  -4.37
33. C79G U116A  -4.35
34. U78G C102U G110A  -4.35
35. C80A G93U G120C  -4.31
36. C79A U116G  -4.15
37. U81G C86U G120U U133A  -4.01
38. C82A G110C  -3.97
39. C79A G117U  -3.95
40. U78G A111U  -3.77
41. C82G A95U A105G  -3.5
42. C79A G110U  -3.48
43. C80A G127U  -3.48
44. C82A G93C C115U G122A  -3.46
45. C82G C86A C94G  -3.45
46. C79A G117U G120C  -3.42
47. C80U C86U C114G C124G U125A  -3.38
48. C79A U106G  -3.37
49. C79A G128C  -3.31
50. U78C C98U U112A U130A  -3.27
51. C80U G127C  -3.21
52. C80U G113C  -3.19
53. C80U A118C  -3.16
54. C79G C101A  -3.09
55. C79U C80U U112A  -2.98
56. U81G C101A U106A  -2.9
57. U81A G93C  -2.88
58. C80A U87G  -2.88
59. C82A U116C C123A  -2.84
60. U81G U87C  -2.82
61. C80A C94U  -2.69
62. C82G G128A U133G  -2.64
63. C79U G93C A100U U112G  -2.61
64. U81A G110U  -2.6
65. C79U U106A U116G  -2.6
66. U78C G117U  -2.53
67. C79A C114A  -2.46
68. C80A G120U  -2.35
69. U78C C85G U106A  -2.34
70. C79U C114U  -2.32
71. C79G A84U  -2.3
72. C79G C85U  -2.29
73. C82A A105U  -2.27
74. U81C A90C U112G  -2.24
75. U81A C86A  -2.24
76. C82G C89A  -2.23
77. C80A G120C  -2.2
78. U81C C102U  -2.2
79. U78C U116G G117A  -2.14
80. C79G G122A  -2.11
81. C80U U92C  -2.1
82. C80U C115U  -2.06
83. U81A C89A  -2.06
84. U81G C82A  -2
85. C79G C88G U112A  -1.98
86. C79U U81C  -1.91
87. U81A C97U  -1.89
88. U78C C80A U116G G120C C123A  -1.86
89. C79U G117A U125G  -1.82
90. C80U C82U U96A  -1.82
91. C79U C101G  -1.8
92. U81A C86U  -1.8
93. U78G C101G  -1.76
94. C79A C82G U112A  -1.75
95. C80U C115A G120A U125A  -1.71
96. U78G G113A U130C  -1.64
97. U78C C104A  -1.61
98. U78G A90C  -1.6
99. C82A C88A U96A  -1.57
100. C82A G113U C114U  -1.55
101. C80U C101A  -1.52
102. U78G C86G C101U  -1.51
103. C79G C101U  -1.49
104. U81A C88A C101U  -1.46
105. C80U C89G  -1.42
106. U81C U87C A100U  -1.38
107. C79A G93A  -1.37
108. C79U A105C  -1.36
109. C82G U129G  -1.36
110. C79G U131C  -1.28
111. U81A A83U C115A  -1.27
112. C80U A83G  -1.23
113. U78C G122A  -1.22
114. C80U C82G C101A C124G U126A  -1.21
115. C82G C88A  -1.21
116. C80U C123A U129C  -1.18
117. C82G C97U  -1.16
118. U81C A83G  -1.15
119. U78C U87A C98U  -1.12
120. C82G U130A  -1.07
121. U81G C82A A84C G120U  -1.07
122. U78C U129A  -1.01
123. C82A G93A A100C C123U U125A  -1
124. U78C U81A A83G  -0.944
125. U81A U131G  -0.926
126. C82G U125A  -0.86
127. C79U A95C  -0.848
128. C79U A84G  -0.834
129. C79U G110A  -0.826
130. C79U U96G  -0.798
131. U78C C94A  -0.785
132. U78G C89U U125G  -0.754
133. C79U C94U  -0.702
134. U78C C89A  -0.68
135. U78C C101U  -0.647
136. C80U U131G  -0.642
137. C79G U112C G122C  -0.637
138. U78C C115A  -0.63
139. C82G A119U  -0.606
140. U81A C104U  -0.577
141. C80U C88U  -0.555
142. C80U A84U G135C  -0.488
143. C82G C86A  -0.475
144. C80U C98U C115A C124G  -0.376
145. C80U C101U  -0.367
146. U78G C82G  -0.36
147. C82A U133A  -0.323
148. U78C G120U  -0.256
149. C79A A119G  -0.23
150. C79U C86U  -0.175
151. U81C U112A U125G  -0.145
152. U78C G93A C101U C123U  -0.0122
153. C82G A84U  0.00652
154. C79U U87A  0.23
155. U78C C85U U112A  0.233
156. C79A U112A C115A C123G  0.259
157. U78C C104U  0.332
158. U81A A95C A121C  0.395
159. U78G U87C  0.411
160. U78C G120C  0.45
161. U78C U87A U130C  0.517
162. C79U G120A  0.635
163. C82G A119G  0.749
164. U81A A121U  1.04
165. C82A U112A  1.06
166. U81C C88A C123G G135U  1.08
167. U78C U112C  2.04

Reference: the RNAGym collection of RNA variant scans (doi:10.1073/pnas.2313332121)
